Measured values taken from patent US20240368668A1, “SUBSTRATES AND BIOMARKERS OF ADAMTS7” (The Broad Institute, Inc., priority 2021, published 2024).
Square brackets hold non-standard residues; d marks the D form. Ends that are not written are not given here. Met(O) = CS(=O)CC[C@H](N)C(=O)O

The substances below were run against T1, mouse ADAMTS7 (Mus musculus, UniProt Q68SA9) (assay: TMT10 TAILS N-terminomics, SMC2 experiment (process replicates, trypsin/AspN digest)). Conditions: SMC2_TAILS HC; log fold change of N-terminal peptide, Ad-mADAMTS7 WT over Luc.
T1 construct: Full-length mouse Adamts7 1-1857 (Uniprot Q68SA9, WT or E373Q catalytic mutant); expressed in transfected cells; host or cells: Human Coronary Artery Smooth Muscle Cells (HCA-SMC, Lonza), adenovirus 50 MOI
T1 sequence (Q68SA9 221-1657): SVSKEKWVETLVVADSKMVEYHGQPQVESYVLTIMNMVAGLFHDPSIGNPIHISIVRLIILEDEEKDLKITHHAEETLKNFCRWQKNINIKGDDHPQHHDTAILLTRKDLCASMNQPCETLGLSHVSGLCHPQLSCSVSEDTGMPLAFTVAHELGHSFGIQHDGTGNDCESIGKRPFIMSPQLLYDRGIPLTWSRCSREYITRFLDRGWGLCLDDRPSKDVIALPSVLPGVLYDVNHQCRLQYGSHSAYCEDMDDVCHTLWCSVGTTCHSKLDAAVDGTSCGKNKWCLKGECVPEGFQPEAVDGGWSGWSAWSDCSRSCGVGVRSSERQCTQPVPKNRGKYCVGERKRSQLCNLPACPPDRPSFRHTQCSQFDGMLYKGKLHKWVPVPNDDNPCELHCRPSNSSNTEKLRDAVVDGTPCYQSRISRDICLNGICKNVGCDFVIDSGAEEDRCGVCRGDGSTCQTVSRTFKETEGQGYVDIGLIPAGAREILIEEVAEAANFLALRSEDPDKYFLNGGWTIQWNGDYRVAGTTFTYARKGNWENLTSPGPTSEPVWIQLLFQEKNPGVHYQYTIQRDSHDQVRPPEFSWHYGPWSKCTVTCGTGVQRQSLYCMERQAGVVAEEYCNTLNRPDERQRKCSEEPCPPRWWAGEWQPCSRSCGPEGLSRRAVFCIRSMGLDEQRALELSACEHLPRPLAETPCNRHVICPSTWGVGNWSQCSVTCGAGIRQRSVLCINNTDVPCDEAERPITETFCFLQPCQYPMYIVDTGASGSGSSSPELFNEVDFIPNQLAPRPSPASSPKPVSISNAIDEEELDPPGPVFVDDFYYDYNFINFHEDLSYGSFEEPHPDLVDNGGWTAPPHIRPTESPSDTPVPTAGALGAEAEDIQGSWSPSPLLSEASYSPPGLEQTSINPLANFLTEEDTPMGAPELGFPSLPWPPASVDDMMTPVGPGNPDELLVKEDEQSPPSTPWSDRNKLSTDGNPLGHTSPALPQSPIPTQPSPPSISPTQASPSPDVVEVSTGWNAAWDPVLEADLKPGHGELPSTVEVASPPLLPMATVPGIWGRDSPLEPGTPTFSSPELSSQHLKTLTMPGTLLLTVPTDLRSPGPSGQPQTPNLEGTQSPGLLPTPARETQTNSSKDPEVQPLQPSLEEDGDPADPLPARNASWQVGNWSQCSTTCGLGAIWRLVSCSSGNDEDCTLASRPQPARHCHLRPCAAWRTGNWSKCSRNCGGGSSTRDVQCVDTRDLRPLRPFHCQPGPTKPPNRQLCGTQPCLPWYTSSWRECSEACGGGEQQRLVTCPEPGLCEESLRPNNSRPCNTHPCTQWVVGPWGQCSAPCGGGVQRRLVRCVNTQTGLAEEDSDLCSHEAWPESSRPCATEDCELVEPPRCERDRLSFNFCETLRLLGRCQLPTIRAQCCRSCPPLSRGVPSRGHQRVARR
Format: cell-based
Procedure, shortened: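 Full-length mouse ADAMTS7 (WT or E373Q mutant, C-terminal 3xFLAG) or luciferase was transduced via adenovirus, 50 MOI, into HCA-SMC (SMC1, SMC2) or HUVEC. SMC1: pooled media, technical triplicates 400 ug; SMC2: process triplicates 300 ug; HUVEC: process triplicates 200 ug, bFGF2 10 ng/ml.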

“VAT1_42 (AASPPLLR; listed as Homo sapiens)” and “TTN_5975 (VKEPPVEFTKPL; listed as Homo sapiens)” are within 0.2 log units of each other in logFC.mWT.over.Luc: 3.22 for the first, 3.15 for the second.

First: SPOCK1_27 (LAGGAGPNHGNFL; listed as Homo sapiens)
Second: PAK4_141 (HSEAGGGSG; listed as Homo sapiens)
The logFC.mWT.over.Luc of the first is lower: 2.03 for the first, 2.47 for the second.

Compared with “LTBP3_103 (LTGSGFR; listed as Homo sapiens)”, “VIM_333 (LKGTNESLER; listed as Homo sapiens)” is lower in logFC.mWT.over.Luc: 4.80 for the first, 3.75 for the second.

Going from “NID2_291 (HSSVPLGR; listed as Homo sapiens)” to “TNS1_236 (QEGLAGYQR; listed as Homo sapiens)”, the logFC.mWT.over.Luc falls from 3.16 to 1.49.

Compared with “MAP4_816 (VASTGPSSR; listed as Homo sapiens)”, “LTBP2_290 (QHVGLSR; listed as Homo sapiens)” is higher in logFC.mWT.over.Luc: 2.53 for the first, 2.94 for the second.

“LTBP2_502 (LVENSVETRPPPWLPASPGHSLW; listed as Homo sapiens)” and “LTBP2_250 (SAAGEGTLAR; listed as Homo sapiens)” are within 0.2 log units of each other in logFC.mWT.over.Luc: 2.66 for the first, 2.49 for the second.

First: NID1_360 (FHQQHPQVI; listed as Homo sapiens)
Second: SHC2_267 (VAKDPINQRACHIL; listed as Homo sapiens)
The logFC.mWT.over.Luc of the first is higher: 2.47 for the first, 1.89 for the second.

Going from “NBEA_1892 (LEKVAPLLR; listed as Homo sapiens)” to “TNPO2_744 (VQ[Met(O)]VLNNLVEII[code n]RP[code n]TPKTLLE; listed as Homo sapiens)”, the logFC.mWT.over.Luc rises from 2.04 to 4.08.

Compared with “POSTN_727 (IITGPEIKYTR; listed as Homo sapiens)”, “VIM_314 (QESTEYR; listed as Homo sapiens)” is higher in logFC.mWT.over.Luc: 2.51 for the first, 3.06 for the second.

First: PTPRF_1859 (MRYEGVVDMFQTVKTLR; listed as Homo sapiens)
Second: MAP4_815 (AVASTGPSSR; listed as Homo sapiens)
The logFC.mWT.over.Luc of the first is higher: 2.51 for the first, 1.68 for the second.

First: LOXL2_45 (HQPQAPANVAKIQLR; listed as Homo sapiens)
Second: PPP1R18_295 (LSETLTR; listed as Homo sapiens)
The logFC.mWT.over.Luc of the first is higher: 2.62 for the first, 2.35 for the second.

Going from “NID2_951 (YAYPGAR; listed as Homo sapiens)” to “LOXL1_218 (AVASAGVIYPYQPR; listed as Homo sapiens)”, the logFC.mWT.over.Luc falls from 2.73 to 1.72.

First: LTBP2_79 (VAGLQPVER; listed as Homo sapiens)
Second: MMP1_185 (FQPGPGIGG; listed as Homo sapiens)
The logFC.mWT.over.Luc of the first is higher: 1.54 for the first, 1.08 for the second.

First: MMP1_100 (FVLTEGNPR; listed as Homo sapiens)
Second: TRGC2_86 (HRCIVRHENNK; listed as Homo sapiens)
The logFC.mWT.over.Luc of the first is lower: 2.35 for the first, 3.16 for the second.

First: PLIN3_75 (VSGAQPILSKL; listed as Homo sapiens)
Second: QSOX1_210 (HKGVAVR; listed as Homo sapiens)
The logFC.mWT.over.Luc of the first is higher: 2.32 for the first, 1.20 for the second.

First: SRGN_59 (LLPGESNKIPR; listed as Homo sapiens)
Second: LTBP3_208 (FLVPLGPGQISA; listed as Homo sapiens)
The logFC.mWT.over.Luc of the first is higher: 3.71 for the first, 1.51 for the second.

Same assay, conditions: SMC2_TAILS HC; log fold change, mWT over Luc

Going from “COL1A2_866 (LLGAPGILGLPGSR; listed as Homo sapiens)” to “COL4A2_71 (YNGPPGLQGFPGLQGR; listed as Homo sapiens)”, the logFC.mWT.over.Luc falls from 2.76 to 1.38.

“COL1A2_305 (LTGAKGAAGLPGVAGAPGLPGPR; listed as Homo sapiens)” and “COL1A2_1028 (LQGLPGIAGHHGDQGAPGSVGPAGPR; listed as Homo sapiens)” are within 0.2 log units of each other in logFC.mWT.over.Luc: 1.60 for the first, 1.73 for the second.

Compared with “COL1A2_960 (AGAPGPHGPVGPAGKHGNR; listed as Homo sapiens)”, “COL1A2_630 (VGTAGPSGPSGLPGER; listed as Homo sapiens)” is lower in logFC.mWT.over.Luc: 2.71 for the first, 2.03 for the second.

First: COL1A2_80 (QYDGKGVGLGPGPMGLMGPR; listed as Homo sapiens)
Second: COL1A2_270 (VGNAGPAGPAGPR; listed as Homo sapiens)
The logFC.mWT.over.Luc of the first is lower: 0.82 for the first, 3.42 for the second.

“COL18A1_1505 (LQPPVVQLHDSNPYPR; listed as Homo sapiens)” was tested, and the logFC.mWT.over.Luc was 1.46.

Same assay, conditions: log fold change, ADAMTS7 WT over luciferase

First: VIM_333 (LKGTNESLER; listed as Homo sapiens)
Second: THBS2_290 (LSENLKR; listed as Homo sapiens)
The logFC.mWT.over.Lux of the first is lower: 4.37 for the first, 4.65 for the second.

Going from “SERBP1_56 (QAAAQTNSNAAGKQLR; listed as Homo sapiens)” to “VIM_314 (QESTEYR; listed as Homo sapiens)”, the logFC.mWT.over.Lux falls from 3.97 to 2.63.

With “SRGN_59 (LLPGESNKIPR; listed as Homo sapiens)” the logFC.mWT.over.Lux was 4.23.
